Test results: US20250215052A1, “INHIBITORS OF PICK1 AND USES THEREOF” (University of Copenhagen, priority 2018, published 2025)
Where two headings read alike, the source gives them in different places.

B1: TP10-P4-(C5)2 (peptide)
peptide 1: HWLKV
peptide 2: […]
modifications: not checked
B2: TAT11-PEG4-(DATC5)2 (peptide)
peptide 1: HWLKV
peptide 2: YGRKKRRQRRR
modifications: not checked

What was measured:
[1] = molecular target: T1, Protein Interacting with C Kinase-1 (PICK1), purified recombinant, Q9EP80; test: fluorescence polarization competition, tracer 5-FAM-TAT-C5, purified PICK1
[2] = molecular target: T2, fluorescently labelled recombinant rat PICK1 (DY549-SNAP-PICK1) (rat), Q9EP80
[3] = molecular target: T1, Protein Interacting with C Kinase-1 …; test: fluorescence polarization competition, tracer 5FAM-TAT-(C5), purified PICK1
[4] = molecular target: T2, fluorescently labelled recombinant rat …; test: SCMS, dissociation of PICK1 pre-bound to TacDAT C24 sheets by peptide

T1 sequence (Q9EP80 whole entry): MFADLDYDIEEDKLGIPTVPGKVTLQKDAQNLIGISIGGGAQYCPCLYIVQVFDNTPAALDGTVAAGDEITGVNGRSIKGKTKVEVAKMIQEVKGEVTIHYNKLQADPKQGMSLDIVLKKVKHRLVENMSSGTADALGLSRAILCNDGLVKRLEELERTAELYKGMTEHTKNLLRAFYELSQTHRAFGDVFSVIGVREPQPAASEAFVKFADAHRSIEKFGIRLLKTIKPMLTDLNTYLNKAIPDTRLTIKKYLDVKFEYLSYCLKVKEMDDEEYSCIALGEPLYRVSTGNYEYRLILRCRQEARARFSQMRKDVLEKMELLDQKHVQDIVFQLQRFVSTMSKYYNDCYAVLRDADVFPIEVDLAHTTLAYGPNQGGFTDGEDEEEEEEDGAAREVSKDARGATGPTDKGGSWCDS
T2 sequence (Q9EP80 whole entry): as above

Binder | Fold affinity change (vs TAT-P4-(C5)2) [1] | Ki [1] | IC50 [2] | Ki [3] | fold shift in affinity [3] | IC50 [4]
B1 | 0.5 fold | 7.8 nM | – | – | – | –
B2 | 1 fold | 4 nM | 7 nM | 6.6 nM | 301 fold | 1170 nM
